Test results: article PMC6483365

Key:
[1] = tested on: recombinant hemagglutinin H7 (Influenza A virus (H7 subtype, strain not stated)); test: SPR; conditions: […], pH 7.4), 25 C, room temperature, 1 h
[2] = tested on: recombinant hemagglutinin H9 (Influenza A virus (H9 subtype, strain not stated)); test: SPR; conditions: […], pH 7.4), 25 C, room temperature, 1 h
[3] = tested on: recombinant hemagglutinin H5 (Influenza A virus (H5 subtype, strain not stated)); test: SPR; conditions: […], pH 7.4), 25 C, room temperature, 1 h
[4] = tested on: recombinant hemagglutinin H1 (Influenza A virus (H1 subtype, strain not stated)); test: SPR; conditions: […], pH 7.4), 25 C, room temperature, 1 h
[5] = tested on: recombinant hemagglutinin H3 (Influenza A virus (H3 subtype, strain not stated)); test: SPR; conditions: […], pH 7.4), 25 C, room temperature, 1 h
[6] = tested on: hemagglutinin on whole virus (Influenza A virus A/duck/Primorie/3691/2002 (H12N2)); test: SERS sandwich; conditions: […], pH 7.4), 25 C, […], room temperature, 1 h
[7] = tested on: hemagglutinin on whole virus (Influenza A virus A/Buryatia/2408/2001 (H4N6)); test: SERS sandwich; conditions: […], pH 7.4), 25 C, […], room temperature, 1 h
[8] = tested on: hemagglutinin on whole virus (Influenza A virus A/tern/South Africa/1/1961 (H5N3)); test: SERS sandwich; conditions: […], pH 7.4), 25 C, […], room temperature, 1 h
[9] = molecular target: hemagglutinin on whole virus (Influenza A virus A/Vietnam/1203/2004-PR8/CDC-R (H5N1)) (UniProt Q6DQ33); test: SERS sandwich; conditions: […], pH 7.4), 25 C, […], room temperature, 1 h
[10] = tested on: hemagglutinin on whole virus (Influenza A virus A/England/42/1972 (H3N2)); test: SERS sandwich; conditions: […], pH 7.4), 25 C, […], room temperature, 1 h
[11] = tested on: hemagglutinin on whole virus (Influenza A virus A/Buryatia/652/1988 (H3N8)); test: SERS sandwich; conditions: […], pH 7.4), 25 C, […], room temperature, 1 h
[12] = molecular target: hemagglutinin on whole virus (Influenza A virus A/Aichi/2/1968 (H3N2)) (UniProt P03437); test: SERS sandwich
[13] = tested on: hemagglutinin on whole virus (Influenza A virus A/duck/Moscow/4182/2010 (H5N3)); test: SERS sandwich; conditions: […], pH 7.4), 25 C, […], room temperature, 1 h
[14] = tested on: hemagglutinin on whole virus (Influenza A virus A/Primorie/3/1982 (H9N2)); test: SERS sandwich; conditions: […], pH 7.4), 25 C, […], room temperature, 1 h
[15] = molecular target: hemagglutinin on whole virus (Influenza A virus A/New Caledonia/20/1999 (H1N1)) (UniProt Q6WG00); test: SERS sandwich; conditions: […], pH 7.4), 25 C, […], room temperature, 1 h
[16] = tested on: hemagglutinin on whole virus (Influenza A virus A/Mississippi/1/1985 (H3N2)); test: SERS sandwich; conditions: […], pH 7.4), 25 C, […], room temperature, 1 h
[17] = tested on: hemagglutinin on whole virus (Influenza A virus A/duck/Primorie/3691/2002 (H12N2)); test: ELAA; conditions: […], pH 7.4), 25 C, […], room temperature, 1 h
[18] = tested on: hemagglutinin on whole virus (Influenza A virus A/tern/South Africa/1/1961 (H5N3)); test: ELAA; conditions: […], pH 7.4), 25 C, […], room temperature, 1 h
[19] = molecular target: hemagglutinin on whole virus (Influenza A virus A/Vietnam/1203/2004-PR8/CDC-R (H5N1)) (UniProt Q6DQ33); test: ELAA; conditions: […], pH 7.4), 25 C, […], room temperature, 1 h
[20] = tested on: hemagglutinin on whole virus (Influenza A virus A/England/42/1972 (H3N2)); test: ELAA; conditions: […], pH 7.4), 25 C, […], room temperature, 1 h
[21] = tested on: hemagglutinin on whole virus (Influenza A virus A/mallard/Sweden/91/2002 (H7N9)); test: ELAA; conditions: […], pH 7.4), 25 C, […], room temperature, 1 h
[22] = molecular target: hemagglutinin on whole virus (Influenza A virus A/Aichi/2/1968 (H3N2)) (UniProt P03437); test: ELAA
[23] = tested on: hemagglutinin on whole virus (Influenza A virus A/Primorie/3631/2002 (H9N2)); test: ELAA; conditions: […], pH 7.4), 25 C, […], room temperature, 1 h
[24] = molecular target: hemagglutinin on whole virus (Influenza A virus A/Puerto-Rico/8/1934 (H1N1)) (UniProt P03452); test: ELAA
hemagglutinin on whole virus (Influenza A virus A/Puerto-Rico/8/1934 (H1N1)), sequence (P03452 whole entry): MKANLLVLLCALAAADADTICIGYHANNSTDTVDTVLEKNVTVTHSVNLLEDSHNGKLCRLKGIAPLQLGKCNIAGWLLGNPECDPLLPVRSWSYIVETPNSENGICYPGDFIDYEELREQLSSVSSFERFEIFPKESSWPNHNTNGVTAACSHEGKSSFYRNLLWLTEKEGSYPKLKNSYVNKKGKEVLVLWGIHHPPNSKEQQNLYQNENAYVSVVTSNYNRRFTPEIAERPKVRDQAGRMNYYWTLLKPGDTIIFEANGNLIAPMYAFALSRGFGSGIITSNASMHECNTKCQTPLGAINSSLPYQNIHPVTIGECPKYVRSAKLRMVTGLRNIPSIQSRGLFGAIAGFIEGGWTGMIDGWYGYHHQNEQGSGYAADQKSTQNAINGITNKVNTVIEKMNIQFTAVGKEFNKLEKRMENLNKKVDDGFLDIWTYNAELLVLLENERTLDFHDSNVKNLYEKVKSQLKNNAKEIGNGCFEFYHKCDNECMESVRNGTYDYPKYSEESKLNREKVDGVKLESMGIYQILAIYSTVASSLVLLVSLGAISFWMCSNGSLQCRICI

[25] = molecular target: hemagglutinin on whole virus (Influenza A virus A/New Caledonia/20/1999 (H1N1)) (UniProt Q6WG00); test: ELAA; conditions: […], pH 7.4), 25 C, […], room temperature, 1 h

TTGGGGTTATTTTGGGAGGGCGGGGGTT [RHA0385] was tested. Which Kd [1] did it give?
Its Kd is 12 nM.

And the Kd [2]?
The Kd was 14 nM.

What about the Kd [3] of the same sequence?
The Kd was 13 nM.

And the Kd [4]?
Its Kd is 7 nM.

And the Kd [5]?
Its Kd is 12 nM.

With “TTGGGGTTATTTTGGGAGGGCGGGGGTT [RHA0385-Cy3]” as the sequence, how does the binding signal (relative SERS signal) [6] read?
Its binding signal (relative SERS signal) is 5.

And the binding signal (relative SERS signal) [7]?
The binding signal (relative SERS signal) was 6.9.

And the binding signal (relative SERS signal) [8]?
Its binding signal (relative SERS signal) is 6.5.

What about the binding signal (relative SERS signal) [9] of the same sequence?
The binding signal (relative SERS signal) was 4.8.

And the binding signal (relative SERS signal) [10]?
The binding signal (relative SERS signal) was 3.

And the binding signal (relative SERS signal) [11]?
The binding signal (relative SERS signal) was 2.4.

What about the binding signal (relative SERS signal) [12] of the same sequence?
Its binding signal (relative SERS signal) is 4.1.

What about the binding signal (relative SERS signal) [13] of the same sequence?
The binding signal (relative SERS signal) was 2.9.

What about the binding signal (relative SERS signal) [14] of the same sequence?
The binding signal (relative SERS signal) was 2.4.

And the binding signal (relative SERS signal) [15]?
Its binding signal (relative SERS signal) is 1.7.

And the binding signal (relative SERS signal) [16]?
The binding signal (relative SERS signal) was 4.3.

Which results are given for “TTGGGGTTATTTTGGGAGGGCGGGGGTT [RHA0385-Biotin]”?
Kd [17]: > 200 nM; Kd [18]: 200 nM; Kd [19]: 34 nM; Kd [20]: 40 nM; Kd [21]: 13 nM; Kd [22]: 17 nM; Kd [23]: 16 nM; Kd [24]: 13 nM; Kd [25]: 42 nM
